Drawing on paper PMC12931925, this text covers increase in relative mCerulean output of the functional RAS sensor compared to 0 ng/well of KRAS^G12D plasmid (HEK293, Figure 2—figure supplement 2b) for one substance.

The assay addresses KRAS^G12D (UniProt P01116).

Chain of RBDCRD-NarX fusions (RAS-binding components of the RAS sensor, RBDCRD wild-type) (P0AFA2 whole entry, looked up, the tested form may be a part): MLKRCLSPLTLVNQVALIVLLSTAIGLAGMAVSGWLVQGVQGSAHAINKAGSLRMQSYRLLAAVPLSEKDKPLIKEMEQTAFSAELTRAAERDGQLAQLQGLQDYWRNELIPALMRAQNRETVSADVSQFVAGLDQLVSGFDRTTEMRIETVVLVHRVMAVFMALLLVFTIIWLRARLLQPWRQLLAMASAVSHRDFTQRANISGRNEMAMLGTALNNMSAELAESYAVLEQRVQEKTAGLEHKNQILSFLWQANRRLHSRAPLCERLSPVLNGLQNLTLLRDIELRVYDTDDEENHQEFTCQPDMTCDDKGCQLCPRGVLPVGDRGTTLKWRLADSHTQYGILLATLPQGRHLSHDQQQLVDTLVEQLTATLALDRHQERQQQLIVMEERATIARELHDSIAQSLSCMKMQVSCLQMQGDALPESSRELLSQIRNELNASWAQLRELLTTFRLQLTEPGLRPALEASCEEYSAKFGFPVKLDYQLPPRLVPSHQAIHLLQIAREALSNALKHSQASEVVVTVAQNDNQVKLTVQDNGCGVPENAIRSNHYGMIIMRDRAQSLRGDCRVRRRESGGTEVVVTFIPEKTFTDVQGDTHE

In turn, “RBDCRD-NarX fusions (RAS-binding components of the RAS sensor, RBDCRD wild-type) (from UniProt P0AFA2 379-598; P0AFA2 379-598)” registered an increase in relative mCerulean output of the functional RAS sensor compared to 0 ng/well of KRAS^G12D plasmid (HEK293, Figure 2—figure supplement 2b) of 14 fold.
